Patent publication US20230192896A1 (published 2023)
Numbering of substitutions follows the chain as printed. Values belong to the binder of their own block, whether it stands above or below them.

Molecular target: free FIXa (activated Factor IX) (UniProt P00740 47-191; P00740 227-461)
Assay: BLI

Kd: 166 nM
B1: BIIB-9-626 (antibody, V domains shown)
VH: QVQLVQSGAEVKKPGASVKVSCKASGYTFTSYYMHWVRQAPGQGLEWMGVINPSGGSTSYAQKFQGRVTMTRDTSTSTVYMELSSLRSEDTAVYYCARDLQYSMTYFDYWGQGTLVTVSS
VL: DIQMTQSPSTLSASVGDRVTITCRASQSISSWLAWYQQKPGKAPKLLIYKASSLESGVPSRFSGSGSGTEFTLTISSLQPDDFATYYCQQDGSYPPLTFGGGTKVEIK

Kd: 31.8 nM
B2: BIIB-9-1286 (antibody, V domains shown)
VH: QVQLVQSGAEVKKPGASVKVSCKASGYTFTSYYMVWVRQAPGQGLEWMGIINPSGGSTSYAQKFQGRVTMTRDTSTSTVYMELSSLRSEDTAVYYCARVPTYRYSYLAFDIWGQGTMVTVSS
VL: DIQMTQSPSSVSASVGDRVTITCRASQGISSWLAWYQQKPGKAPKLLIYAASSLQSGVPSRFSGSGSGTDFTLTISSLQPEDFVTYYCQQASSFPPTFGGGTKVEIK

Kd: 11.3 nM
B3: BIIB-9-579 (antibody, V domains shown)
VH: QVQLVQSGAEVKKPGASVKVSCKASGYTFTSYYMVWVRQAPGQGLEWMGIINPSGGSTSYAQKFQGRVTMTRDTSTSTVYMELSSLRSEDTAVYYCARGPWYSYYYMDVWGKGTTVTVSS
VL: B2 VL with V11L, G28S, W32Y, A34N, A50G, V84A, S92F, P96F

Kd: 43.9 nM
B4: BIIB-9-1282 (antibody, V domains shown)
VH: B2 VH
VL: EIVMTQSPATLSVSPGERATLSCRASQSVSSNLAWYQQKPGQAPRLLIYGASTRATGIPARFSGSGSGTEFTLTISSLQSEDFAVYYCQQHNHLPITFGGGTKVEIK

Kd: 21.4 nM
B5: BIIB-9-566 (antibody, V domains shown)
VH: B2 VH
VL: B4 VL with N32S, N92D, H93N, L94W, I96P

Kd: 51.7 nM
B6: BIIB-9-1280 (antibody, V domains shown)
VH: B3 VH
VL: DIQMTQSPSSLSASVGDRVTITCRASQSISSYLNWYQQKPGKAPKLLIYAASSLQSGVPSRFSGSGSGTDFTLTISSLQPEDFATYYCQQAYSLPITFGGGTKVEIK

Kd: 1.36 nM
B7: BIIB-9-408 (antibody, V domains shown)
VH: QVQLVQSGAEVKKPGASVKVSCKASGYTFTSYYMHWVRQAPGQGLEWMGIINPSGGSTTYAQKFQGRVTMTRDTSTSTVYMELSSLRSEDTAVYYCARDPGAYDDWSGYDDYGMDVWGQGTTVTVSS
VL: EIVLTQSPATLSLSPGERATLSCRASQSVSSYLAWYQQKPGQAPRLLIYDASNRATGIPARFSGSGSGTDFTLTISSLEPEDFAVYYCQQAFVWPPITFGGGTKVEIK

Kd: 11.7 nM
B8: BIIB-9-452 (antibody, V domains shown)
VH: QVQLVQSGAEVKKPGASVKVSCKASGYTFTSYYMHWVRQAPGQGLEWMGIINPSGGSTSYAQKFQGRVTMTRDTSTSTVYMELSSLRSEDTAVYYCARDGRLSYTWDRWGQGTLVTVSS
VL: B4 VL with H91A, H93N, L94F, I96F

Kd: 58.8 nM
B9: BIIB-9-1277 (antibody, V domains shown)
VH: QVQLVQSGAEVKKPGASVKVSCKASGYTFTSYYMHWVRQAPGQGLEWMGIINPSGGSTSYAQKFQGRVTMTRDTSTSTVYMELSSLRSEDTAVYYCARGGTGYYYGSGSRDGYHYYYGMDVWGQGTTVTVSS
VL: EIVMTQSPATLSVSPGERATLSCRASQSVSSYLAWYQQKPGQAPRLLIYDASNRATGIPARFSGSGSGTDFTLTISSLEPEDLAVYYCQQSANWPPTFGGGTKVEIK

Kd: 40.7 nM
B10: BIIB-9-889 (antibody, V domains shown)
VH: QLQLQESGPGLVKPSETLSLTCTVSGGSISSSSYYWGWIRQPPGKGLEWIGSIYYSGSTYYNPSLKSRVTISVDTSKNQFSLKLSSVTAADTAVYYCARDVGWYTEYFDLWGRGTLVTVSS
VL: B4 VL with H91A, N92F, H93N, L94W, I96P
